# According to PMC8393265:
# Target: SARS-CoV-2 spike receptor-binding domain (RBD), recombinant, produced in house (SARS-CoV-2) (UniProt P0DTC2)
# Assay: SEC
substance,measurement,value
"SARS-CoV-2 spike receptor-binding domain (RBD), recombinant, produced in house (from UniProt P0DTC2) (domain or fragment)",stoichiometry N,3
